We go through one molecule from article PMC7239026, “PepO is a target of the two-component systems VicRK and CovR required for systemic virulence of Streptococcus mutans” (Virulence, 2020).

Assay [1] has as its target T1, human complement protein C1q (human, UniProt P02745 23-245; P02746 28-253; P02747 29-245).
T1 construct: Complement C1q subcomponent subunit A, human; Complement C1q subcomponent subunit B, human; Complement C1q subcomponent subunit C, human; Named only as a whole; source: bought: Calbiochem
Briefly: ELISA; human glycoproteins coated on 96-well plates (5 ug/mL in 75 mM sodium carbonate buffer pH 9.6, 18 h at 4°C); blocked with 3% fish gelatin; rPepO (10 to 50 ug/mL) or rCnmA (0.125 to 2 ug/mL) in 50 mM HEPES pH 7.4, 150 mM NaCl, 2 mM CaCl2, 50 ug/mL BSA, 2 h at 37°C; bound protein detected with rabbit antiserum and peroxidase conjugate, A450 nm; wells with 1% BSA as control. The conditions noted are these: both partners purified.

Assay [2] deals with T2, human C4b-binding protein (C4BP) (human, UniProt P04003 49-597; P20851 18-252).
T2 construct: Named only as a whole ('a multimeric glycoprotein'); source: bought: Athens Research & Technology
T2 sequence (looked up) 1: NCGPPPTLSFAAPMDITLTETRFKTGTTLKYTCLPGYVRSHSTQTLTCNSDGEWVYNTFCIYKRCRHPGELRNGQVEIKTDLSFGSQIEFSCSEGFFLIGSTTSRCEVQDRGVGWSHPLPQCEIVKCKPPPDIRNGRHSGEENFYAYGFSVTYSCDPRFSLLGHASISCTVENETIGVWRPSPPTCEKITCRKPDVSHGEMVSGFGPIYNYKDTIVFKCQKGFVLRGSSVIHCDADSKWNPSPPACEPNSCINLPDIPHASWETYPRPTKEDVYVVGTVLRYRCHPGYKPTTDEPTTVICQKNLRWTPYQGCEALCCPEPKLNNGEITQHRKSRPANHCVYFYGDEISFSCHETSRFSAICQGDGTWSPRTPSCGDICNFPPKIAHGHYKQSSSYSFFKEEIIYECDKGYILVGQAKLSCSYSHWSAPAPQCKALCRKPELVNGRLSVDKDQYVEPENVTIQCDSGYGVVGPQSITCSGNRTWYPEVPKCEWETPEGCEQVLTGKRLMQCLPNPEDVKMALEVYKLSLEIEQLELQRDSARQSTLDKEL
T2 sequence (looked up) 2: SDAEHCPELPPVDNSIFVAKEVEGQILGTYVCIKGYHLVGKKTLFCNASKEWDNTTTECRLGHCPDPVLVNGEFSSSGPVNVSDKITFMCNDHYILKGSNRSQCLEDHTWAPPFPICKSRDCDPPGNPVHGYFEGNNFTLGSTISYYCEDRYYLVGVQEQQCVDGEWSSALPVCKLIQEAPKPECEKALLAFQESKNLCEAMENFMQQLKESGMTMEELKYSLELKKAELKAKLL
The assay is described as above. The following applies: both partners purified.

T1 sequence (P02745 23-245, chain 1 of 3): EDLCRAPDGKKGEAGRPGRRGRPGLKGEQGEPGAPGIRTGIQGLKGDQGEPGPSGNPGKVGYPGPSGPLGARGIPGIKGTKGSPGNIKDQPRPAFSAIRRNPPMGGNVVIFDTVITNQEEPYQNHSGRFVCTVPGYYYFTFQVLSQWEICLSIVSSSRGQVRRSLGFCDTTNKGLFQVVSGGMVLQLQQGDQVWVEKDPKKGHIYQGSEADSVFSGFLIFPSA
T1 sequence (P02746 28-253, chain 2 of 3): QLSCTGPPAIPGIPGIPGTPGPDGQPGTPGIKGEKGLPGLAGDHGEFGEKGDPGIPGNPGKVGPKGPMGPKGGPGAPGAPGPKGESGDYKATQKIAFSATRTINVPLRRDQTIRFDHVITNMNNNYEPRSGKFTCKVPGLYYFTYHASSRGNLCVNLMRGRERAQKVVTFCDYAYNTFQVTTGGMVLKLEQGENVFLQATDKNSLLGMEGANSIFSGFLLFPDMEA
T1 sequence (P02747 29-245, chain 3 of 3): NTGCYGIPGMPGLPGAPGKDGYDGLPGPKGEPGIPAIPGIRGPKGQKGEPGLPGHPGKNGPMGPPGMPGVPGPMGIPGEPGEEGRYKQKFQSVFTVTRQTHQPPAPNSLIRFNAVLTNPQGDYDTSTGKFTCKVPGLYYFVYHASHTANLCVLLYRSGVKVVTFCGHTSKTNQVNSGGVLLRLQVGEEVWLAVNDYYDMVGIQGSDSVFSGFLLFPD

B1: His-tagged PepO recombinant protein (rPepO), endopeptidase O of Streptococcus mutans (natural protein)
chain: MVRLQDDFYNAVNGQWEEAAVIPDDKPRTGGFSDLADDIEDLMLETTDKWLDGKDVPDDSILQNFVKFHRQVADYDAREETGVKPVLPLIEEYKSLTSFADFASNIATYEMAGKPNELPFGVAPDFMNAQMNVLWAEAPNLILPDTTYYAEGNDKGKELLAKWRTMQEELLPKFGFEEAEIKDLLDKVLTLDAKLAQYVLSSEESSEYVKLYHPYDWADFTKLTPELPLDAIFTQILGQKPDKVIVPEERFWTNFAAEFYSEKNWPFLKATLVLAAASSYNSYLTDDIRILSGSYNRALSGTPQAMGKKKAAFYLAQGPYNQALGLWYAGEKFSPEAKKDVEAKVATMIEVYKERLHKTDWLAQETRNKAITKLNVITPHIGYPEQLPKTYAQKIIDDNLSLVENAQNLAKISIAYNWSKWNQPVDRSEWHMPAHMVNAYYDPQQNQIVFPAAILQAPFYSLEQSSSANYGGIGAVIAHEISHAFDTNGASFDENGSLNNWWTDEDYAAFKKRTDRVVEQFEGLDSYGAKVNGQLTVSENVADLGGLACALEAAKREADFSVRDFFINFATIWRMKARDEYMQMLASIDVHAPAKWRTNVTITNFDEFHQEFAVKEGDGMWRDEDKRVIIW
notes: PepO (endopeptidase O) of Streptococcus mutans strain UA159; entire PepO coding region (1896 bp) amplified from UA159 genomic DNA and cloned into pET-16B; Vector pET-16B; also called full-length PepO; source: E. coli BL21, purified under native conditions (Ni-NTA), dialyzed in PBS
With B1, the binding result in assay [1] and in assay [2] was “binds” in each case.
